Test results taken from the supplement of paper PMC6757056.
± gives the standard deviation of the averaged measurements.

B1: library; a variant is named by its letters at N, in order (parent)
chain: GCUGUCACCGAGAAACUGUGAAGUAUAUCUUAAACCUGGGCACUUAAAAGAUAUAUGGAGUUAGUAGUGCAACCUGCUCGGUCUGAUGAGUCCNNNNNNGGACGAAACAGC

Columns and labels:
cyclic di-GMP [1] = variants of: B1; assay: FACS-Seq fitted mean relative fluorescence mCherry/BFP without ligand (log10 relative fluorescence); HEK293T; ligand: cyclic di-GMP (c-di-GMP-II aptamer); higher = higher reporter protein expression; conditions: ligand present: no
In short: (§1)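 After lentiviral transduction, HEK293T library cells bearing an mCherry ribozyme-switch reporter and an EF1α-BFP marker were enriched. They were then held for 48 h with or without ligand and sorted by mCherry/BFP into 6 bins, and each bin's genomic DNA was PCR-amplified, barcoded and MiSeq-sequenced. Fluorescence is expressed as a normalized fitted mean: the normal mean of log10(mCherry/BFP) bin counts, scaled to five spiked-in control ribozymes.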

cyclic di-GMP [2] = variants of: B1; assay: normalized RNA/DNA level without ligand (relative to sTRSVctl = 100) (log10 (% of sTRSVctl)); HEK293T; ligand: cyclic di-GMP (c-di-GMP-II aptamer); higher = less ribozyme self-cleavage, higher mRNA level; conditions: reporter: mCherry (pCS4076), ligand present: no
Method: (§2)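 Hammerhead (sTRSV) ribozyme switch libraries with a ligand aptamer grafted on stem I and a randomized N4-6 loop II, cloned into the 3' UTR of mCherry and transiently transfected into HEK293T cells; RNA-Seq 72 h post transfection with ligand added 1 h before transfection; RNA read count / plasmid DNA read count normalized to the non-cleaving sTRSVctl (x100), log10; sequences with >100 DNA reads. FACS-Seq: lentiviral library sorted into 6 bins after 48 h ligand, log-normal fit mean of mCherry/BFP scaled to controls. Printed sequences are partial switch sequences.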

cyclic di-GMP [3] = variants of: B1; assay: FACS-Seq fitted mean relative fluorescence mCherry/BFP with ligand (log10 relative fluorescence); HEK293T; ligand: cyclic di-GMP (c-di-GMP-II aptamer); ligand concentration (+) FACS-Seq: 1 mM; higher = higher reporter protein expression; conditions: ligand present: yes
In short: as §1

cyclic di-GMP [4] = variants of: B1; assay: normalized RNA/DNA level with ligand (relative to sTRSVctl = 100) (log10 (% of sTRSVctl)); HEK293T; ligand: cyclic di-GMP (c-di-GMP-II aptamer); ligand concentration (+) RNA-Seq: 1 mM; higher = less ribozyme self-cleavage, higher mRNA level; conditions: reporter: mCherry (pCS4076), ligand present: yes
Method: as §2

| Variant | FACS-Seq fitted mean (log10) (cyclic di-GMP [1]) | normalized RNA/DNA level without ligand (log10) (cyclic di-GMP [2]) | FACS-Seq fitted mean (log10) (cyclic di-GMP [3]) | normalized RNA/DNA level with ligand (log10) (cyclic di-GMP [4]) |
| --- | --- | --- | --- | --- |
| ACCAAC | -0.0269 ± 0.12 | 1.6 ± 0.048 | 0.111 ± 0.07 | 1.76 ± 0.085 |
| GCAUUG | -0.56 ± 0.071 | 1.5 ± 0.13 | -0.211 ± 0.025 | 1.71 ± 0.052 |
| GAUGGA | -0.376 ± 0.014 | 1.42 ± 0.14 | -0.11 ± 0.031 | 1.61 ± 0.097 |
| ACAUGG | -0.46 ± 0.077 | 1.44 ± 0.11 | -0.227 ± 0.031 | 1.61 ± 0.11 |
| CCCAUU | -0.0438 ± 0.1 | 1.637 ± 0.0022 | 0.204 ± 0.023 | 1.79 ± 0.13 |
| CCCAUA | -0.471 ± 0.0071 | 1.4 ± 0.11 | -0.164 ± 0.0037 | 1.65 ± 0.09 |
| ACCAUA | -0.294 ± 0.15 | 1.51 ± 0.065 | 0.0129 ± 0.043 | 1.71 ± 0.11 |
| UCAUGU | -0.749 ± 0.0092 | 1.63 ± 0.073 | -0.517 ± 0.028 | 1.82 ± 0.077 |
| GAUGUA | -0.456 ± 0.056 | 1.662 ± 0.0051 | -0.166 ± 0.016 | 1.77 ± 0.11 |
| GAUGCA | 0.17 ± 0.18 | 1.83 ± 0.066 | 0.358 ± 0.026 | 1.9 ± 0.12 |
| GCCAGG | -0.568 ± 0.068 | 1.75 ± 0.071 | -0.429 ± 0.034 | 1.84 ± 0.087 |
| ACACAG | -0.515 ± 0.016 | 1.44 ± 0.084 | -0.191 ± 0.074 | 1.68 ± 0.11 |
| CCAAUA | -0.5437 ± 0.0029 | 1.36 ± 0.12 | -0.271 ± 0.066 | 1.59 ± 0.11 |
| CCAAUG | -0.6462 ± 0.0011 | 1.23 ± 0.16 | -0.334 ± 0.017 | 1.49 ± 0.018 |
| CAUGGA | -0.378 ± 0.071 | 1.52 ± 0.052 | -0.00583 ± 0.069 | 1.74 ± 0.077 |
| CAUUUA | -0.573 ± 0.012 | 1.32 ± 0.088 | -0.291 ± 0.0053 | 1.51 ± 0.1 |
| CCCCUG | -0.147 ± 0.12 | 1.69 ± 0.045 | 0.154 ± 0.1 | 1.84 ± 0.097 |
| CCCCUA | -0.244 ± 0.03 | 1.56 ± 0.054 | 0.111 ± 0.091 | 1.74 ± 0.093 |
